B1: CD40 NJ3 splice variant (receptor)
chain: EPPTACREKQYLINSQCCSLCQPGQKLVSDCTEFTETECLPCGESEFLDTWNRETHCHQHKYCDPNLGLRVQQKGTSETDTICTCEEGWHCTSEACESCVLHRSCSPGFGVKQIATGVSDTICEPCPVGFFSNVSSAFEKCHPWTSCETKDLVVQQAGTNKTDVVCGESWTMGPGESLGRSPGSAESPGGDPHHLRDPVCHPLGAGLYQKGGQEANQ
notes: For ELISA and FACS it was expressed non-fused with baculovirus, secreted and purified from the supernatant on a G28-5 column; also called CD40 NJ3 variant; CD40 variant NJ3
B2: CD40 NJ1 splice variant (receptor)
chain: EPPTACREKQYLINSQCCSLCQPGQKLVSDCTEFTETECLPCGESEFLDTWNRETHCHQHKYCDPNLGLRVQQKGTSETDTICTCEEGWHCTSEACESCVLHRSCSPGFGVKQIATGVSDTICEPCPVGFFSNVSSAFEKCHPWTSCETKDLVVQQAGTNKTDVVCGESWTMGPGESLGRWELKGEMRHTGTLDGKKGRGGSLGVWYHSSATYLGSLGKSLPLS
notes: For ELISA and FACS it was expressed non-fused with baculovirus, secreted and purified from the supernatant on a G28-5 column; also called CD40 NJ1 variant; CD40 variant NJ1

Target: T1, full length human CD154 on stably transfected mouse fibroblasts (human, UniProt P29965 1-261)
T1 construct: whole, on cells; also called membrane CD154; hCD154
T1 sequence (looked up): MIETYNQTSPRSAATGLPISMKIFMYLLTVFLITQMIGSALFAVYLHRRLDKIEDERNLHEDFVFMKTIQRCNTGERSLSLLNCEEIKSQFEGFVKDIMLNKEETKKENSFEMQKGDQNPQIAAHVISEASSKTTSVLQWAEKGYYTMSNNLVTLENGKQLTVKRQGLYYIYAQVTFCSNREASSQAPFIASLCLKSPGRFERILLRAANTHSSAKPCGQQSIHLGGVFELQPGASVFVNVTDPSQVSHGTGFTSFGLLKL
Assay: flow cytometry on mouse fibroblasts transfected with human CD154, detected with PE-EA-5
Experimental: 10⁶ mouse fibroblasts (stably transfected with full length human CD154) were incubated with CD40 NJ1 (FIGS. 7-8) or CD40 NJ3 variants (FIGS. 9-11). All the proteins were incubated at a concentration of 1-50 μg/ml at 4° C. for 60 min in total volume of 100 μl (0.5×10^6 cells). […] Analysis was performed using BD FACsCalibur. A known CD40 soluble variant was used (in the form of a FC tagged protein) as a positive control for detecting binding to CD154 (U.S. patent application No. 60/547,422, hereby incorporated by reference as if fully set forth herein) (FIG. 17-18).
Briefly, the FACS protocol was as follows. Mouse fibroblasts were trypsinized, and washed twice in PBS; cells were centrifuged at 1500 rpm for 10 min between washes. Next, the cells were re-suspended in FACS buffer (0.2% BSA and 0.02% sodium azide diluted 1/10 in PBS) to give 5-10×10⁶ cells mL. Cells were placed in FACS test-tubes at a volume of 100 or 200 microliters per tube.
Next, 2 μL (1:50) […] non-blocking antibody (EA-5 mouse IgG1 PE-conjugated, obtained from Calbiochem) or controls (same isotype PE conjugated) were added to the tubes, and incubated for 30 min at 4° C. The process of washing was then repeated with 5 mL PBS. Next, 0.5 mL PBS was added to tubes, which were read in a FACS machine (BD FACSCalibur).

Binder	binding result
B1	binds
B2	binds
